Target: T1, GFP-TONSL E568A (Homo sapiens, UniProt Q96HA7 1-1378)
T1 construct: also called TONSL E568A / GFP; not shown: N-terminal GFP tag
T1 sequence: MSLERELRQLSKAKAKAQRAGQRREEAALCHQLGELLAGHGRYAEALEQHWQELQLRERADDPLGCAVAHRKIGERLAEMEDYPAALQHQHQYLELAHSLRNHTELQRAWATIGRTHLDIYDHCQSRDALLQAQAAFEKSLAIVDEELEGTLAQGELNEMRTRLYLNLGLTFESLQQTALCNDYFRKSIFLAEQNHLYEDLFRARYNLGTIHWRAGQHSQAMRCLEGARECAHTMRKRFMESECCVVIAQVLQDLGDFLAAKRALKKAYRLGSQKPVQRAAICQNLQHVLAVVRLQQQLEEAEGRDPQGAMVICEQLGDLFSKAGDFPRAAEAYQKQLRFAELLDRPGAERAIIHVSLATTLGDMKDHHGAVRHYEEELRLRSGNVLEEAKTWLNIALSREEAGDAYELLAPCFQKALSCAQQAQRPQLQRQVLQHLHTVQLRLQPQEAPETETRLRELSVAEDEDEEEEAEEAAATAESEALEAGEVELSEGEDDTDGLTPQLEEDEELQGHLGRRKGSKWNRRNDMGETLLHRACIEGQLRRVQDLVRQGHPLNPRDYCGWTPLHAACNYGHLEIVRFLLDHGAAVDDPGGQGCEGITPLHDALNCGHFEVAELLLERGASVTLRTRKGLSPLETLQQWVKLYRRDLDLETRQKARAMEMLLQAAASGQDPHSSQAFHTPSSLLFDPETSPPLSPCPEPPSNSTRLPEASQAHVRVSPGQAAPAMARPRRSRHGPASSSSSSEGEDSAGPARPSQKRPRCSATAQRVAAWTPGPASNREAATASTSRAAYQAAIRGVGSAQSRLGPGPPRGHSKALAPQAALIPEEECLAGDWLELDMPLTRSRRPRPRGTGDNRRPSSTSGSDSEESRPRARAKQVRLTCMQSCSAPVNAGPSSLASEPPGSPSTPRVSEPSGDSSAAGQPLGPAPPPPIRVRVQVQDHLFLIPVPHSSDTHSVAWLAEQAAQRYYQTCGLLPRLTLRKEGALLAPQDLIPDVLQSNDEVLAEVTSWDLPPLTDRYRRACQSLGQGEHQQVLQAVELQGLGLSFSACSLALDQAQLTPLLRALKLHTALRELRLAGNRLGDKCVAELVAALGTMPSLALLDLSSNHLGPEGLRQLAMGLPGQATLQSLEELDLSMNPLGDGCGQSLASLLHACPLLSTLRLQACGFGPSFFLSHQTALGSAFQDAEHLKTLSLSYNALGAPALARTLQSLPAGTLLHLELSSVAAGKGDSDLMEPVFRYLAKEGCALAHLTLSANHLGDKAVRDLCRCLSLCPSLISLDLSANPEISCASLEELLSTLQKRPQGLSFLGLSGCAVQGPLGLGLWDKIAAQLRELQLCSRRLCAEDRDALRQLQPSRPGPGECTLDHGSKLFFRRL
Assay: GFP immunoprecipitation of GFP-TONSL from transfected HeLa S3 cells, western blot (co-IP; association may be indirect)

binding result: binds
B1: MMS22L (endogenous, in cell extracts) (other, UniProt Q6ZRQ5 1-1243, looked up)
chain: MENCSAASTFLTDSLELELGTEWCKPPYFSCAVDNRGGGKHFSGESYLCSGALKRLILNLDPLPTNFEEDTLEIFGIQWVTETALVNSSRELFHLFRQQLYNLETLLQSSCDFGKVSTLHCKADNIRQQCVLFLHYVKVFIFRYLKVQNAESHVPVHPYEALEAQLPSVLIDELHGLLLYIGHLSELPSVNIGAFVNQNQIKLFPPSWHLLHLHLDIHWLVLEILYMLGEKLKQVVYGHQFMNLASDNLTNISLFEEHCETLLCDLISLSLNRYDKVRSSESLMSDQCPCLCIKELWVLLIHLLDHRSKWFVSESFWNWLNKLLKTLLEKSSDRRRSSMPVIQSRDPLGFSWWIITHVASFYKFDRHGVPDEMRKVESNWNFVEELLKKSISVQGVILEEQLRMYLHCCLTLCDFWEPNIAIVTILWEYYSKNLNSSFSISWLPFKGLANTMKSPLSMLEMVKTCCCDKQDQELYKSSSSYTIFLCILAKVVKKAMKSNGPHPWKQVKGRIYSKFHQKRMEELTEVGLQNFFSLFLLLAAVAEVEDVASHVLDLLNFLKPAFVTSQRALIWKGHMAFLLMYAQKNLDIGVLAEKFSCAFREKAKEFLVSKNEEMVQRQTIWTLLSIYIDGVQEVFETSYCLYPSHEKLLNDGFSMLLRACRESELRTVLSFLQAVLARIRSMHQQLCQELQRDNVDLFVQSSLSAKERHLAAVASALWRHFFSFLKSQRMSQVVPFSQLADAAADFTLLAMDMPSTAPSDFQPQPVISIIQLFGWDDIICPQVVARYLSHVLQNSTLCEALSHSGYVSFQALTVRSWIRCVLQMYIKNLSGPDDLLIDKNLEEAVEKEYMKQLVKLTRLLFNLSEVKSIFSKAQVEYLSISEDPKKALVRFFEAVGVTYGNVQTLSDKSAMVTKSLEYLGEVLKYIKPYLGKKVFSAGLQLTYGMMGILVKSWAQIFATSKAQKLLFRIIDCLLLPHAVLQQEKELPAPMLSAIQKSLPLYLQGMCIVCCQSQNPNAYLNQLLGNVIEQYIGRFLPASPYVSDLGQHPVLLALRNTATIPPISSLKKCIVQVIRKSYLEYKGSSPPPRLASILAFILQLFKETNTDIYEVELLLPGILKCLVLVSEPQVKRLATENLQYMVKACQVGSEEEPSSQLTSVFRQFIQDYGMRYYYQVYSILETVATLDQQVVIHLISTLTQSLKDSEQKWGLGRNIAQREAYSKLLSHLGQMGQDEMQRLENDNT
